We go through 41 sequences from the nanobody polyreactivity screen of Harvey et al. (2022).

The data set can be described thus: yeast display, Sf9 membrane polyspecificity reagent, FACS + sequencing; frameworks hold sequencing errors. Summed up: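 Galactose-induced (36–48 hours) yeast carrying a synthetic nanobody display library were exposed to 10% biotinylated, detergent-solubilized Sf9 membrane reagent at 4 °C for 1 hour. FACS followed streptavidin microbead enrichment, using low and high (top ~1%) gates for expression (anti-HA) and reagent binding (streptavidin). Colony PCR, MiSeq 2 × 250 sequencing and CDR-length filtering followed. Labels for polyreactivity reflect the gate of origin.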
As for “QVQLVESGGGLVQAGGSLRLSCAASGSTSESNAMGWYRQAPGKERELVAAIRSSGGGTYYADSVKGRFTISRDNAKNTVYLQMNSLKPEDTAVYYCAKDVPEDYEFYYWGQGTQVTVSS”, the “polyreactivity (PSR sort gate)” value is on record as “low polyreactivity”.

Consider “QVQLVESGGGLVQAGGSLRLSCAASGSTSGKYGMGWYRQAPGKVRELVAGITKGGGGTYYADSVKGRFTISRDNAKNTVYLQMHSLKPEDTAVYYCAKYYGSGYYIYDYWGQGTQVTVSS”, for which the “polyreactivity (PSR sort gate)” value is reported as “low polyreactivity”. As to “QVQLVESGGGLVQAGGSLRLSCAASGSTSLSYVKGWYRQAPGKERELVATITSSGGSTYYADSVKGRFTISRDNAKNTDYLQMNSLKQEDPAVYYCNARSYIYPFSPTSYYRYYWGQGTQVTGSS”, the “polyreactivity (PSR sort gate)” value was “high polyreactivity”. For “QVQLVESGGGLVQAGGSLRLSCAASGSTSNLYAMGWYIQAPGKERELVAAITSIDGGTYYADSVKGRFTISRDNAKNTVYLQMNSLKAEDTAVYYCNAEDRFFYWGGYDYWGQGTQVTVSS”, the “polyreactivity (PSR sort gate)” value is given as “low polyreactivity”.

Regarding “QVQLVESGGGLVQAGGSLRLSCAASGSTSPDNAMGWYRPAQGKERELVAAISSGGYTYADSVKGRFTISRDNAKNTVYLQMNSLKPEDTSVYYCAKDDLYSPAAGGGYWGEGTQVTVSS”, the “polyreactivity (PSR sort gate)” value is given as “low polyreactivity”.

Consider “QVQLVESGGGLVQAGGSLRLSCAASGSTSPGYAMGWYRQAPGKERELVAAITFRGTRTYYADSVKGRFTISRDNAKNTVYLQMNSLKPEDTAVFYCNVVGYGPNRGRVDYWGQGTQVTVSS”, for which the “polyreactivity (PSR sort gate)” value is “high polyreactivity”.

As to “QVQLVESGGGLVQAGGSLRLSCAASGSTSPLYAMGWYRQAPGKERELVAAISWSTGSTYYADSVKGRFTISRDNAKNTVYLQMNSLKPEDTAVYYCAADYWFRYGTYEYWGQGTQVTVSS”, the “polyreactivity (PSR sort gate)” value was “high polyreactivity”. For the sequence “QVQLVESGGGLVQAGGSLRLSCAASGSTSPNAMGWYRQAPGKERELVAAIWSGGTYYADSVKGRFTISRDNAKNTVYLQLNSLKPEDTAVYYCAVTGVYRGFRYGYLGQGTQVTVSS”, the “polyreactivity (PSR sort gate)” value was “low polyreactivity”. As for “QVQLVESGGGLVQAGGSLRLSCAASGSTSQRNAMGWYRQAPGKERELVAAISRSGGSTSYADSVKGRFTISRDNAKNTVYLQMNSLKPEDTAVYYCNTDRRIYRVWYNYWGQGTQVTVSS”, the “polyreactivity (PSR sort gate)” value is given as “high polyreactivity”. Under “QVQLVESGGGLVQAGGSLRLSCAASGSTSRGYAMGWYRPAPGKERELVASITLSGGNTYYADSVKGRFTISRDSAKNTVYFQMYSLKPVDTAVYYCAADDRGSSYGHFTVEYGNWGQGTQVTVSS” stands “low polyreactivity”; under “QVQLVESGGGLVQAGGSLRLSCAASGSTSRGYAMGWYRQAPGEERELVASITLSGGNTYYADSVKGRFTISRDNAKNTVYLQMNSLKPEDTAVYYCAADDRGSSYGHFTVEYGYWGQGTQVTVSS”, “low polyreactivity”. “QVQLVESGGGLVQAGGSLRLSCAASGSTSRYAMGWYRQAPGKERELVAAITRSGGTTYYADSVKGRFTISRDNAKNTVYLQMNSLKPEDTAVYYCATSDRQVKYDYWGQGTQVTVSS”: the “polyreactivity (PSR sort gate)” value is “low polyreactivity”. Take “QVQLVESGGGLVQAGGSLRLSCAASGSTSSVNAMGWYRQAPGKEREFVATISFGGGRRYYADSVKGRFTISRDNAKNTVYLQMNSLKPEDTAVYYCAAVGSRWFSQTWRDYWGQGTQVTVSS”: the “polyreactivity (PSR sort gate)” value is “high polyreactivity”. Under “QVQLVESGGGLVQAGGSLRLSCAASGSTSTYYAMGWYRQAPGKERELVATISSTGNTKYADSVKGRFTISRDNAKNTVYLQMNSLKPEDTAVYYCNKRRSARFSSWGRVSYDYWGQGTQVTVSS” stands “high polyreactivity”; under “QVQLVESGGGLVQAGGSLRLSCAASGSTSVGNAMGWSRQAPGKERELVAAISRIGGTTYYADSVKGRFTISRDNAKNTVYLQMNSLKPEDPAVYYCNVLKRYWSGRVDYWGQGTQVTVSS”, “high polyreactivity”. In the case of “QVQLVESGGGLVQAGGSLRLSCAASGSTSVQYAMGWYRQAPGKERELVAAIDRSGGSTSYADSVKGRFTISRDNAKHTVYLQMNSLKPEDTAVYYCNADVHNRGWPYDYWGQGTQVTVSS”, the “polyreactivity (PSR sort gate)” value is “low polyreactivity”. Take “QVQLVESGGGLVQAGGSLRLSCAASGSTSVTNAMGWYRQAPGKEREFVATINYSGTSTYYADSVKGRFTISRDNAKNTVYLQMNSLKPEDTAVYYCNAHDFGFYRFSLPGYDYWGQGTQVTVSS”: the “polyreactivity (PSR sort gate)” value is on record as “low polyreactivity”.

In the case of “QVQLVESGGGLVQAGGSLRLSCAASGSTSYPYAMGWYRQAPGKERELVATITSGGRTNYADSVKGRFTISRDNAKNTVYLQMNSLKPEDTAVYYCNARFYRWRSYGYDYWGQGTQVTVSS”, the “polyreactivity (PSR sort gate)” value is given as “high polyreactivity”.

“QVQLVESGGGLVQAGGSLRLSCAASGSTSYTNAMGWYRPAPGKERELVAGITRSGDSTYYADSVKGRFTISRDNAKNTVYLQMNSLKPEDTAVYYCAADIGDYWWGYYTGYYYWGQGTQVTVSS”: the “polyreactivity (PSR sort gate)” value was “high polyreactivity”. As for “QVQLVESGGGLVQAGGSLRLSCAASGSTSYYYAMGWYRQAPGKERELVAAISYSGGRTYYADSVKGRFTISRDNAKNTVYLQMNSLKPEDTAVYYCAKTFRGQPYLRYRYYYWGQGTQVTVSS”, the “polyreactivity (PSR sort gate)” value is given as “high polyreactivity”.

Take “QVQLVESGGGLVQAGGSLRLSCAASGSTTHYYAMGWYRQAPGKEWELVASITWSVGSTYYADSVKGRFTISRDNAKNTVYLQMNSLKPEVTAVYYCAGRPFPRRYDYWGQGTQVTVSS”: the “polyreactivity (PSR sort gate)” value is on record as “low polyreactivity”.

As for “QVQLVESGGGLVQAGGSLRLSCAASGSTVGANAMGWYRQAPGKERELVATISSGGRTYYADSVKGRFTISRDNAKNTVYLQMNSLKPEDTAVYYCNAGADYTYVYISVYVLYDYWGQGTQVTVSS”, the “polyreactivity (PSR sort gate)” value was “low polyreactivity”. For the sequence “QVQLVESGGGLVQAGGSLRLSCAASGSTVKYAMGWYRQAPGKDRELVASIRRSGGSTYYADSVKGRFTISRDNAMNTVYLQMNRLKPEDTAVYYCNARFPYNWRYDYWGQGTQVTVSS”, the “polyreactivity (PSR sort gate)” value is reported as “high polyreactivity”.

Consider “QVQLVESGGGLVQAGGSLRLSCAASGSTVPQYTMGWYRQAPGKERELVAAITKSGGSTYYADSVKGRFTISRDNAKNTVYLQMNSLKPEDTAVYYCNRRWGWRLYDYWGQGTQVTVSS”, for which the “polyreactivity (PSR sort gate)” value is recorded as “high polyreactivity”. With “QVQLVESGGGLVQAGGSLRLSCAASGSTVTYNTMGWYIQAPGKERELVAAISSGGSTYYADSVKGRFTISRDNAKNTVYLQMNSLKPEDTAVYYCAAEHYDYPYDYYCGQGTQVTVSS”, the “polyreactivity (PSR sort gate)” value is recorded as “high polyreactivity”.

In the case of “QVQLVESGGGLVQAGGSLRLSCAASGSTVYHNAMGRYRQAPGKERELVAAITWSGSRTYYADSVKGRFTISRDNAKNTVYLQMNSLKPEDTAVYYCAARDYWGQGTQVTVSS”, the “polyreactivity (PSR sort gate)” value is recorded as “high polyreactivity”. Turning to “QVQLVESGGGLVQAGGSLRLSCAASGSTVYRYTMGWYRQAPGKERELVAAISRSGGRTYYADSVKGRFTISRDNAKNTVYLQMNSMKPEDTAVDYCNAEIAASAVQAQEGEFWGQGTQVTVSS”, the “polyreactivity (PSR sort gate)” value is “high polyreactivity”.

In the case of “QVQLVESGGGLVQAGGSLRLSCAASGSTVYTNAMGWYRQAPGKERELVAAISSSGDSTYYADSVKGRFTISRDNAKNTVYLQMNSLKPEDTAVYYCAADKYLSYDFWGQGTQVTVSS”, the “polyreactivity (PSR sort gate)” value was “low polyreactivity”. Under “QVQLVESGGGLVQAGGSLRLSCAASGSTVYYNAMGWYRQAPGKEREFVAAINCRGGSTYYADSVKGRFTISRDNSKNTVYLQMNSLKPEDTAVYYCAAEEPSTYYYVRSGYDYHFWEMYSWGQGTQVTVSS” stands “low polyreactivity”; under “QVQLVESGGGLVQAGGSLRLSCAASGSTYAYDMGSYRQAPGKERELVAAISWDGGDTYYADSVKGRFTISRDNAKNTVYLQMNSLKPEDTAVYYCNTVFQRSGYAAGVDYWGQGTQVTVSS”, “high polyreactivity”; under “QVQLVESGGGLVQAGGSLRLSCAASGSTYDIYAMGWYRQAPGKEREKVAAISWSGGSTHYADSVKGRFTISRDNAKNTVFFQMNSLKPEDTAVYYCAAVGRLWSLWRTKSYNYWGQGTEVTVSS”, “low polyreactivity”. The same measure for “QVQLVESGGGLVQAGGSLRLSCAASGSTYDNNRMGWYRQATGKERELVASITFNVGSTYYADSVKGRFTISRDNAKNTVYLQMNSLKPEETAVYYCAADDLNLSQALGYDYWGQGTQVTVSS”: “low polyreactivity”. Take “QVQLVESGGGLVQAGGSLRLSCAASGSTYHYAMGWYRQAPGKERELVASITWRGDTTYYADSVKGRFTISRDNAKNTVYLQMNSLKPEDTAVYYGATVPYSPPSAGPEYDYWGQGTQVTVSS”: the “polyreactivity (PSR sort gate)” value is listed as “high polyreactivity”. For the sequence “QVQLVESGGGLVQAGGSLRLSCAASGSTYNNAMGWYRQAPGKERELVAAIRWSGGSTYYADSVKGRFTISRDNAKNTVYLQMNSLKPEDTAVYYCAARYRWSRKRYNDYDYWGQGTQVTVSS”, the “polyreactivity (PSR sort gate)” value is “high polyreactivity”. As for “QVQLVESGGGLVQAGGSLRLSCAASGSTYNVNAMGWARQAPGKERELVAAITSSGGSSNYADSVKGRFTISRDNAKNTVYLQMNSLKPEDTAVYYCAADAIFFSRLNLGYDYWGQGTQVTVSS”, the “polyreactivity (PSR sort gate)” value is “low polyreactivity”. On to “QVQLVESGGGLVQAGGSLRLSCAASGSTYRNAMGWYRQAPGKERELVAAITKSDSSTYYADSVKGRFTISRDNAKNTVYLQMYSLKPEDTAVYYCNVDRAWPPWPYDYWGQGTQVTVSS”, for which the “polyreactivity (PSR sort gate)” value was “low polyreactivity”. “QVQLVESGGGLVQAGGSLRLSCAASGSTYRYTMGWYRQAPGKERELVAAITGSAGRTYYADSVKGRFTISRDNAKNTVYLQMNSLKPEDTAVYYCNKDRPRKFWDYYYWGQGTQVTVSS”: the “polyreactivity (PSR sort gate)” value is “high polyreactivity”. Under “QVQLVESGGGLVQAGGSLRLSCAASGSTYTYALGWSRQAPGKERELVADITQSGGSTYYADSVKGRFTISRDNAKNTVYLQMNSLKTEDTAVYYCNAESRHVFEDEYWGQGTQVTGSS” stands “low polyreactivity”; under “QVQLVESGGGLVQAGGSLRLSCAASGSTYVGYAMGWYRQAPRKERDLVADIDSIGGSTYYADTVKRRFTISRDKAKNTVYLQMNSLKPEDTAVYYCAARRFDTALVLYDYWGQCTQVTVSS”, “low polyreactivity”; under “QVQLVESGGGLVQAGGSLRLSCAASGSTYVGYTLGWYRQAPGKERELVAAITRRSGSTYYADSVKGRFTISRDNAKNTVYVQMNSLKPEDTAVYYCAKDFSRYSRFGHTEHDYWGQGTQVTVSS”, “high polyreactivity”. As for “QVQLVESGGGLVQAGGSLRLSCAASGSTYYENTMGWYRQAPGKEREMVAAISFRGGSTYYADSVKGRFTISRDNAKNTVYLQMNSLKPDDTAVYYCAKEYYTVRLYDYWGQGTQGTVSS”, the “polyreactivity (PSR sort gate)” value was “low polyreactivity”.
